From paper PMC3542137, “Mycobacterium tuberculosis RecG binds and unwinds model DNA substrates with a preference for Holliday junctions”

What was measured:
RecGMtb [1] = target: T1, RecGMtb (Mycobacterium tuberculosis H37Rv, UniProt P9WMQ7 1-737); test: EMSA; no poly(dI-dC); 1 uM RecG; conditions: protein: recombinant; tags: N-terminal His6 cleaved off with thrombin (pET28b); label: 32P 5' end
T1 sequence: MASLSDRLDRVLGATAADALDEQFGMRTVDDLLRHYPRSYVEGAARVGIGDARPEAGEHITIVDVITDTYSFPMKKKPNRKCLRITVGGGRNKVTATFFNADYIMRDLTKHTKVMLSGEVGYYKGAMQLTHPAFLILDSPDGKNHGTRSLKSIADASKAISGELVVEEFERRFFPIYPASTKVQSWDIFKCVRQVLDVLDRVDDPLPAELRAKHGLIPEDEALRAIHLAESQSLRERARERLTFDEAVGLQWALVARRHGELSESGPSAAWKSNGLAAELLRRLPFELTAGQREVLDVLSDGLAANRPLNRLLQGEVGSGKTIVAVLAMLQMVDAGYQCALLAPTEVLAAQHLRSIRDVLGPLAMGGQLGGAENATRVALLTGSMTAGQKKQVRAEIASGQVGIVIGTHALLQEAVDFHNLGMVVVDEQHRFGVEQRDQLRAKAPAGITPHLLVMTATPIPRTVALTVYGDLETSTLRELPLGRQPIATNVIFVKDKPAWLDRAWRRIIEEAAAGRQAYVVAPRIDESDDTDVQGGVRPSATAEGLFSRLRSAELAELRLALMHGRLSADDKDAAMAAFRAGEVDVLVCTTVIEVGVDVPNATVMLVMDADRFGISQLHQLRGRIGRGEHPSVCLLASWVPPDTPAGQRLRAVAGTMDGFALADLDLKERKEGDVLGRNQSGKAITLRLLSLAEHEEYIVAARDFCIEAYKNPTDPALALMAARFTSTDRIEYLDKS

RecGMtb [2] = target: T1, RecGMtb; test: EMSA; 5 mM EDTA, poly(dI-dC); 2 uM RecG; conditions: protein: recombinant; tags: N-terminal His6 cleaved off with thrombin (pET28b); label: 32P 5' end; bubble 1:2
RecGMtb [3] = target: T1, RecGMtb; test: EMSA; 5 mM EDTA, poly(dI-dC); conditions: protein: recombinant, tags: N-terminal His6 cleaved off with thrombin (pET28b), label: 32P 5' end

## TTTTTTTTTTTTTTTTTTTTTTTTTTTTTTTTTTTTTTTT (ssDNA) [poly(dT) 40 nt]
RecGMtb [1]
  binding result: binds

B1: bubble (substrate I) (structured_DNA)
DNA 1: GGGTGAACCTGCAGGTGGGCGGCTGCTCATCGTAGGTTAGTTGGTAGAATTCGGCAGCGTC
DNA 2: GACGCTGCCGAATTCTACCAGTGCCTTGCTAGGACATCTTTGCCCACCTGCAGGTTCACCC
RecGMtb [2]
  binding result: binds

B2: 5'-tailed duplex (oligos 3+2) (dsDNA)
DNA 1: TTTTTTTTTTTTTTTTTTTTCGTGACATGCCGTGACTAGC
DNA 2: GCTAGTCACGGCATGTCACG
RecGMtb [3]; 5' overhang 20 nt (T20)
  binding result: no binding

B3: 3'-tailed duplex (oligos 1+2) (dsDNA)
DNA 1: CGTGACATGCCGTGACTAGCTTTTTTTTTTTTTTTTTTTT
DNA 2: GCTAGTCACGGCATGTCACG
RecGMtb [3]; 3' overhang 20 nt (T20)
  binding result: no binding

B4: lagging strand replication fork (substrate E) (structured_DNA)
DNA 1: GTCGGATCCTCTAGACAGCTCCATGATCACTGGCACTGGTAGAATTCGGC
DNA 2: CAACGTCATAGACGATTACATTGCTACATGGAGCTGTCTAGAGGATCCGA
DNA 3: TAGCAATGTAATCGTCTATGACGTT
RecGMtb [3]; fork 1:2 2:3
  binding result: binds

B5: Holliday junction (substrate H) (structured_DNA)
DNA 1: GACGCTGCCGAATTCTGGCTTGCTAGGACATCTTTGCCCACGTTGACCC
DNA 2: TGGGTCAACGTGGGCAAAGATGTCCTAGCAATGTAATCGTCTATGACGTT
DNA 3: CAACGTCATAGACGATTACATTGCTAGGACATGCTGTCTAGAGACTATCGA
DNA 4: ATCGATAGTCTCTAGACAGCATGTCCTAGCAAGCCAGAATTCGGCAGCGT
RecGMtb [3]
  binding result: binds
